# Data published in the supplement of paper PMC9732359.
# ± gives the uncertainty stated by the source.
# Experiment: protein stability index of a GFP-peptide fusion (yeast GPS) (PSI 1-4); higher = more stable; sorted into four equal gates, so the index is relative within each strain
# Conditions: doa10∆
# Summary of the method: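 Yeast carrying a pooled library were grown to mid-log phase in leucine-free medium. Each library plasmid expresses Cherry and has a tiled 17-residue yeast protein peptide fused downstream of GFP. Cells were sorted into four equal gates by GFP/Cherry ratio, and plasmids from each gate were PCR-amplified, Illumina-sequenced and assigned to strains by barcode. Summing, across gates, the read frequency times the gate number gave each peptide's protein stability index.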
row,Sequence,protein stability index
1,KEIRAFDKLLNIPRREL [SRB4],2.6 ± 0.08
2,KELEPWDLQLQEKESQI [SMC4],3.16 ± 0.12
3,KENEESLTPTQSDSAKV [PRP28],3.13 ± 0.088
4,KEQTIQLPSKFTCSCNS [RPN14],2.15 ± 0.065
5,KFGLLLQVSAQERKDFL [ECM29],1.6 ± 0.082
6,KFLNFRPPNGIKNFKSL [SSN2],1.87 ± 0.04
7,KFSERRKALPKEPKKLL [DSN1],2.33 ± 0.069
8,KGIAKEHAKWGPAAAIE [RPB3],3.11 ± 0.12
9,KGKDFEITAKEVYDFTH [FAS1],3.09 ± 0.059
10,KGLETIDNGAESSENEA [RPC53],3.24 ± 0.13
11,KGNVGFVFTNEPLTEIK [RPP0],3.56 ± 0.18
12,KGRYAPETGDHVVGRIA [RRP4],3.03 ± 0.08
13,KGVATTREKVLEDKLRA [RRP46],3.36 ± 0.15
14,KGVGRRYSNLVCKKADV [RPS18A],3.46 ± 0.2
15,KHDSLRYRLLSDVSDFE [RPN1],2.7 ± 0.09
16,KHFIQGGSFGNREEFIN [RPL7A],1.61 ± 0.21
17,KHSVTEYIFEAHEIIKR [CDC53],2.32 ± 0.067
18,KIDIIELQKSLSLEEVE [FAS1],2.92 ± 0.14
19,KILAGLHDTQIEGKLHM [RPN10],3.31 ± 0.18
20,KILRDNIQGITKPAIRR [HHF1],3.17 ± 0.083
21,KILSPTMYMEVYTAIYN [CDC53],1.58 ± 0.058
22,KILVLTGAGVSTSLGIP [SIR2],2.35 ± 0.042
23,KINPFGFEQVKIALGSP [RRI2],2.65 ± 0.08
24,KIQETELKIRSKTENVR [RPT6],2.35 ± 0.11

row,Sequence,protein stability index
1,KIRITLTSTKVKQLENV [RPS20],1.77 ± 0.076
2,KIRPWRTFRLNECVCTP [RPO31],1.31 ± 0.065
3,KISEDPVKALNECIAST [SNF12],2.37 ± 0.17
4,KISGGNDKQGFPMKQGV [RPS6A],2.53 ± 0.071
5,KISLRDICLKLNLDSEQ [RPN3],3.46 ± 0.12
6,KITIGIQRTTESLILKW [RGR1],2.33 ± 0.086
7,KIYMLYSLQPSVDITGG [RPC34],1.94 ± 0.13
8,KKFDISNDNLDLISEIL [MED1],2.77 ± 0.067
9,KKHKQKKVLEIDFFKTD [BRN1],2.54 ± 0.037
10,KKIAQRERRAALTDFER [RPL14A],3.09 ± 0.3
11,KKIVDDTIMENPEPNKK [IRR1],2.14 ± 0.071
12,KKKDPVNQDKANNASQI [SNF12],3.02 ± 0.093
13,KKLSKKYNAFIASEVLI [RPL1A],1.45 ± 0.026
14,KKPRKPRQTKKAKAQAQ [PGD1],3.2 ± 0.13
15,KKQAQKQTKLRKEKEKK [SMB1],3.04 ± 0.27
16,KKQNLSSHQRVFKLSTN [SWP82],1.94 ± 0.052
17,KKQPSILVGGTLKDYQI [SNF2],2.31 ± 0.11
18,KKQVHVYRFVTENAIEE [ISW2],1.68 ± 0.07
19,KKRKNKSSGSSMATPTH [ROX3],2.99 ± 0.071
20,KKRREYFPEGYNNKVGV [SIR2],2.42 ± 0.13
21,KKRSKARKETYSSYIYK [HTB1],2.84 ± 0.24
22,KKSLEEDDEFEDFPIDT [SEM1],3 ± 0.13
23,KKSRLGNSFHLMRELLK [PRP8],2.58 ± 0.04
24,KKVNYKVTSYDITGDIR [ISW2],2.72 ± 0.058

row,Sequence,protein stability index
1,KKVQALQSDKNFLDNCL [ITC1],3.13 ± 0.084
2,KLAAIVEIIDQKKVLID [RPL14A],2.8 ± 0.18
3,KLAKNLQIGDVVERHLE [RPO31],3.25 ± 0.15
4,KLASTLEKISSSNKDLE [SMC4],3.09 ± 0.053
5,KLDIISDPESERPAIEF [RPN14],2.94 ± 0.045
6,KLDKQINMADRSLGLQQ [POP6],3.02 ± 0.12
7,KLDQDDEIYIPINGNEA [CSI1],3.24 ± 0.15
8,KLEKLRNEKRMFLEFQS [SMC2],2.88 ± 0.13
9,KLGIESKQPNSAIRKCV [RPS23A],3.21 ± 0.11
10,KLHEFYLLISKENKKRK [IRR1],2.96 ± 0.081
11,KLKECPFDMGGYFIING [RPB2],3 ± 0.078
12,KLKNNASRSQLEKGEIE [YJL039C/NUP192],3.18 ± 0.11
13,KLLAISKFNNADDVFTG [RPC31],3.03 ± 0.15
14,KLLAKELEEQESESERK [SMC2],2.71 ± 0.13
15,KLLNDLALENGEITKTE [NUT1],3.13 ± 0.15
16,KLLTPQDMEAAKEVYKI [GAL11],3.13 ± 0.14
17,KLNTFENDLLQEFDSEL [SMC3],3.22 ± 0.13
18,KLPKVYKRSIVRNYKPL [SWI1],2.8 ± 0.086
19,KLRSELGYKDTSVIQDL [BRR2],2.74 ± 0.13
20,KLSKVQLYEDLCRYEDT [MED4],2.88 ± 0.069
21,KLSSAENANADLENKFN [YIL149C/MLP2],3.06 ± 0.063
22,KLTVCFDDILKVGAEMM [MED2],1.97 ± 0.07
23,KLWAEIIVKILYYRPHI [GRR1],1.4 ± 0.064
24,KLYKTPIPIPAFADRLG [PRE10],1.5 ± 0.11

row,Sequence,protein stability index
1,KMENLMRLIKRVRAESL [YJL039C/NUP192],1.49 ± 0.083
2,KMLKIWTMAFRTMDDIK [ECM29],2.03 ± 0.11
3,KMLMNLHKEQWQSGLKM [RPN11],2.14 ± 0.048
4,KNGALVSNILSAFKFIH [YJL039C/NUP192],1.71 ± 0.055
5,KNHTHNLPGNITVVLGV [RRP4],2.3 ± 0.14
6,KNLIQLISLKLLTFEVT [SRB8],1.28 ± 0.081
7,KNNILGSNVLKSGKTIV [RRP43],3.05 ± 0.039
8,KNNLLIPDLSIQNDIYL [RPN12],2.93 ± 0.046
9,KNYPEYFLKVTFLKYFG [IRR1],1.33 ± 0.085
10,KPALKVSKEGLYQLVDI [YMR129W/POM152],3.18 ± 0.13
11,KPGQNNRQQKKRRFDPS [RRP6],2.78 ± 0.089
12,KPGSKPEKTSTELVDGR [SIR3],3.16 ± 0.13
13,KPLFDFGKTGDQKETKK [YOR098C/NUP1],3.3 ± 0.12
14,KPMTAYARADTHFLLNI [RRP6],2.26 ± 0.05
15,KPQLKFKSPIDNSESHP [RRP6],2.77 ± 0.083
16,KPSFSFPGKPVDVQAPT [YOR098C/NUP1],2.72 ± 0.056
17,KPTSHKQLQQPKSSPLK [SIR4],2.87 ± 0.057
18,KQERSKQERLKENEESL [PRP28],3.21 ± 0.2
19,KQFDSIFNSNKAKIIPG [SIR4],2.32 ± 0.046
20,KQQDAEELFTQLFHSMS [UBP6],3.25 ± 0.059
21,KQTGRDQMVVGWYHSHP [RPN11],2.4 ± 0.12
22,KQVLLRLNPYAKVFAAE [RPL4A],2.12 ± 0.067
23,KQVQISHHLKADTIDHD [YGL172W/NUP49],2.91 ± 0.067
24,KRAEKKAKERLQALKAN [SNF2],2.72 ± 0.12

# Same assay, conditions: pdr5∆
row,Sequence,protein stability index
1,KEIRAFDKLLNIPRREL [SRB4],2.46 ± 0.07
2,KELEPWDLQLQEKESQI [SMC4],3.22 ± 0.13
